Measured values: paper PMC5750132
Read-outs that look alike come from different tables or passages of the source.

Key:
[1] = molecular target: Truncated mouse TMEM16A (amino acids 1-903) (mouse); experiment: cryo-EM structure
[2] = molecular target: Truncated mouse TMEM16A (amino acids 1-903) (mouse); experiment: cryo-EM structure; remark: listed apart in the source

- stoichiometry N [1]: 2
- stoichiometry N [2]: 2
Substance: Truncated mouse TMEM16A (amino acids 1-903) (domain or fragment)
